Results as given in the supplement of paper PMC10899765.

Experiments:
Conditions in all cases: 20 nM; 72 h
[1] = system: MCF10A; assay: 5+ nucleoli phenotype percent effect (relative to siNT 0% and siKIF11 100%); higher = more cells with five or more nucleoli
Experimental: (§1)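 After 72 h, cells were fixed and stained with Hoechst and anti-fibrillarin, and nucleoli per nucleus were counted with CellProfiler. Values are plate-adjusted percent effect for the one-nucleolus and 5+ nucleoli phenotypes, normalised to siNT (0%) and to the positive controls siNOL11 or siKIF11 (100%), as the mean of biological triplicates. Percent viability is the nuclei count relative to siNT.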

[2] = system: MCF10A; assay: one-nucleolus phenotype percent effect (relative to siNT 0% and siNOL11 100%); higher = more cells with one nucleolus (ribosome biogenesis inhibition)
Experimental: as §1

[3] = system: MCF10A; assay: percent viability (nuclei count relative to siNT); higher = more viable cells
Experimental: as §1

Sequence: CCCUGGGGUUCUGAGGACAUG [hsa-miR-6852-5p]
- 5+ nucleoli phenotype percent effect [1]: 29%
- one-nucleolus phenotype percent effect [2]: 8.28%
- percent viability [3]: 32.3%

Sequence: CAUCUGGGCAACUGACUGAAC [hsa-miR-1298-3p]
- 5+ nucleoli phenotype percent effect [1]: -17.1%
- one-nucleolus phenotype percent effect [2]: 57%
- percent viability [3]: 7.06%

Sequence: GAAAGUACAGAUCGGAUGGGU [hsa-miR-8054]
- 5+ nucleoli phenotype percent effect [1]: 24.3%
- one-nucleolus phenotype percent effect [2]: -3.34%
- percent viability [3]: 55.8%

Sequence: CUUGGUUCAGGGAGGGUCCCCA [hsa-miR-659-3p]
- 5+ nucleoli phenotype percent effect [1]: -6.48%
- one-nucleolus phenotype percent effect [2]: 37.6%
- percent viability [3]: 34.6%

Sequence: AUAAUACAUGGUUAACCUCUUU [hsa-miR-655]
- 5+ nucleoli phenotype percent effect [1]: -21.2%
- one-nucleolus phenotype percent effect [2]: 4.84%
- percent viability [3]: 118%

Sequence: UGUGGGACUGCAAAUGGGAG [hsa-miR-4648]
- 5+ nucleoli phenotype percent effect [1]: -30.5%
- one-nucleolus phenotype percent effect [2]: 19.7%
- percent viability [3]: 41.5%

Sequence: UGCGGCCGGUGCUCAACCUGC [hsa-miR-1199-3p]
- 5+ nucleoli phenotype percent effect [1]: -6.68%
- one-nucleolus phenotype percent effect [2]: 23.8%
- percent viability [3]: 22.1%

Sequence: CUGUCCUAAGGUUGUUGAGUU [hsa-miR-676-3p]
- 5+ nucleoli phenotype percent effect [1]: 29.3%
- one-nucleolus phenotype percent effect [2]: -12%
- percent viability [3]: 20.8%

Sequence: UAACGGCCGCGGUACCCUAA [hsa-miR-4485]
- 5+ nucleoli phenotype percent effect [1]: -19.2%
- one-nucleolus phenotype percent effect [2]: 0.183%
- percent viability [3]: 32.8%

Sequence: AUCCCACCUCUGCCACCA [hsa-miR-1260a]
- 5+ nucleoli phenotype percent effect [1]: 24.8%
- one-nucleolus phenotype percent effect [2]: -2.14%
- percent viability [3]: 42.3%

Sequence: UCAGAUGAUCUAAAGGCCUAUA [hsa-miR-1245b-3p]
- 5+ nucleoli phenotype percent effect [1]: -4.77%
- one-nucleolus phenotype percent effect [2]: 9.29%
- percent viability [3]: 34.5%

Sequence: AUUCCUAGAAAUUGUUCAUA [hsa-miR-384]
- 5+ nucleoli phenotype percent effect [1]: 23.8%
- one-nucleolus phenotype percent effect [2]: -8.73%
- percent viability [3]: 107%

Sequence: CACCAUGGACGGUUUACC [hsa-miR-7153-3p]
- 5+ nucleoli phenotype percent effect [1]: -48.4%
- one-nucleolus phenotype percent effect [2]: 62.9%
- percent viability [3]: 23.4%

Sequence: UAACACUGUCUGGUAACGAUGU [hsa-miR-200a-3p]
- 5+ nucleoli phenotype percent effect [1]: 36.9%
- one-nucleolus phenotype percent effect [2]: -6.99%
- percent viability [3]: 75.6%

Sequence: UAACAGUCUCCAGUCACGGCC [hsa-miR-212-3p]
- 5+ nucleoli phenotype percent effect [1]: 29.7%
- one-nucleolus phenotype percent effect [2]: -19.5%
- percent viability [3]: 219%

Sequence: GAAUACUAAGUAAAAAAUCAGUA [hsa-miR-8084]
- 5+ nucleoli phenotype percent effect [1]: 66.7%
- one-nucleolus phenotype percent effect [2]: -33.5%
- percent viability [3]: 215%

Sequence: UGAAGCGCCUGUGCUCUGCCGAGA [hsa-miR-7706]
- 5+ nucleoli phenotype percent effect [1]: 12.3%
- one-nucleolus phenotype percent effect [2]: -18.1%
- percent viability [3]: 40.2%

Sequence: UGGCCCAACCUAUUCAGUUAGU [hsa-miR-3136-3p]
- 5+ nucleoli phenotype percent effect [1]: 34.8%
- one-nucleolus phenotype percent effect [2]: -25.2%
- percent viability [3]: 140%

Sequence: CCUAGAAACUGUAAACUUAGUC [hsa-miR-8067]
- 5+ nucleoli phenotype percent effect [1]: 47.4%
- one-nucleolus phenotype percent effect [2]: -35.3%
- percent viability [3]: 108%

Sequence: CAGGGCAGGAAGAAGUGGACAA [hsa-miR-4436b-3p]
- 5+ nucleoli phenotype percent effect [1]: -7.65%
- one-nucleolus phenotype percent effect [2]: 31.7%
- percent viability [3]: 20.5%

Sequence: GAUAUUCAGAGGCUAGGUGG [hsa-miR-6074]
- 5+ nucleoli phenotype percent effect [1]: -1.31%
- one-nucleolus phenotype percent effect [2]: -6.04%
- percent viability [3]: 34.5%

Sequence: UCCCUGGAGUUUCUUCUU [hsa-miR-4308]
- 5+ nucleoli phenotype percent effect [1]: 27.5%
- one-nucleolus phenotype percent effect [2]: -7.67%
- percent viability [3]: 53.7%

Sequence: GUGGGUGCUGGUGGGAGCCGUG [hsa-miR-6741-5p]
- 5+ nucleoli phenotype percent effect [1]: -22.2%
- one-nucleolus phenotype percent effect [2]: 6.09%
- percent viability [3]: 43.5%

Sequence: AUGGGUGAUGGGUGUGGUGU [hsa-miR-4701-3p]
- 5+ nucleoli phenotype percent effect [1]: -25%
- one-nucleolus phenotype percent effect [2]: 47.1%
- percent viability [3]: 13.3%

Sequence: ACUGGCAUUAGUGGGACUUUU [hsa-miR-5588-5p]
- 5+ nucleoli phenotype percent effect [1]: 33.4%
- one-nucleolus phenotype percent effect [2]: -3.93%
- percent viability [3]: 46.1%

Sequence: UUCACCACCUUCUCCACCCAGC [hsa-miR-197-3p]
- 5+ nucleoli phenotype percent effect [1]: -10%
- one-nucleolus phenotype percent effect [2]: 10.8%
- percent viability [3]: 28.8%

Sequence: ACUGGGCAGGGCUGUGGUGAGU [hsa-miR-6860]
- 5+ nucleoli phenotype percent effect [1]: -5.42%
- one-nucleolus phenotype percent effect [2]: -5.92%
- percent viability [3]: 50.7%

Sequence: UGGGCUGAGGGCAGGAGGCCUGU [hsa-miR-4656]
- 5+ nucleoli phenotype percent effect [1]: 20.8%
- one-nucleolus phenotype percent effect [2]: 22.2%
- percent viability [3]: 9.2%

Sequence: UCAAGAGCAAUAACGAAAAAUGU [hsa-miR-335-5p]
- 5+ nucleoli phenotype percent effect [1]: 37.7%
- one-nucleolus phenotype percent effect [2]: -9.96%
- percent viability [3]: 79.4%

Sequence: AGGUUGCCUGUGAGGUGUUCA [hsa-miR-656-5p]
- 5+ nucleoli phenotype percent effect [1]: -1.12%
- one-nucleolus phenotype percent effect [2]: 10.7%
- percent viability [3]: 17.5%

Sequence: AAAAGUAAUUGCGGUCUUU [hsa-miR-548ap-5p]
- 5+ nucleoli phenotype percent effect [1]: 39.1%
- one-nucleolus phenotype percent effect [2]: -19%
- percent viability [3]: 121%

Sequence: UGUCACCCGCUCCUUGCCCAG [hsa-miR-6879-3p]
- 5+ nucleoli phenotype percent effect [1]: -23.3%
- one-nucleolus phenotype percent effect [2]: 3.65%
- percent viability [3]: 47.6%

Sequence: CAGGCAGUGACUGUUCAGACGUC [hsa-miR-2682-5p]
- 5+ nucleoli phenotype percent effect [1]: -23.5%
- one-nucleolus phenotype percent effect [2]: 51.4%
- percent viability [3]: 12.3%

Sequence: AUAGGCACCAAAAAGCAACAA [hsa-miR-4423-3p]
- 5+ nucleoli phenotype percent effect [1]: -11.3%
- one-nucleolus phenotype percent effect [2]: 0.708%
- percent viability [3]: 12.9%

Sequence: GUAGGUGACAGUCAGGGGCGG [hsa-miR-6800-5p]
- 5+ nucleoli phenotype percent effect [1]: -0.87%
- one-nucleolus phenotype percent effect [2]: 1.11%
- percent viability [3]: 33.9%

Sequence: CGGGGCCGUAGCACUGUCUGAGA [hsa-miR-128-1-5p]
- 5+ nucleoli phenotype percent effect [1]: 21.2%
- one-nucleolus phenotype percent effect [2]: 22.5%
- percent viability [3]: 26.1%

Sequence: CACUGUAGGUGAUGGUGAGAGUGGGCA [hsa-miR-1183]
- 5+ nucleoli phenotype percent effect [1]: 17.5%
- one-nucleolus phenotype percent effect [2]: 0.199%
- percent viability [3]: 66.4%

Sequence: CUGGCCUCUUCUUUCUCCUAG [hsa-miR-6878-3p]
- 5+ nucleoli phenotype percent effect [1]: 96%
- one-nucleolus phenotype percent effect [2]: -7.63%
- percent viability [3]: 45.7%

Sequence: UGAGGCAGUAGAUUGAAU [hsa-miR-1827]
- 5+ nucleoli phenotype percent effect [1]: -33.8%
- one-nucleolus phenotype percent effect [2]: 60.2%
- percent viability [3]: 16.7%

Sequence: AGAAGGGGUGAAAUUUAAACGU [hsa-miR-3179]
- 5+ nucleoli phenotype percent effect [1]: -30.9%
- one-nucleolus phenotype percent effect [2]: 60.8%
- percent viability [3]: 18.1%

Sequence: GCGAGGACCCCUCGGGGUCUGAC [hsa-miR-611]
- 5+ nucleoli phenotype percent effect [1]: 45.7%
- one-nucleolus phenotype percent effect [2]: -31.1%
- percent viability [3]: 121%

Sequence: AAAAACCACAAUUACUUUU [hsa-miR-548ap-3p]
- 5+ nucleoli phenotype percent effect [1]: -30.6%
- one-nucleolus phenotype percent effect [2]: 16.7%
- percent viability [3]: 30.2%

Sequence: UUCACUGGAGUUUGUUUCAAUA [hsa-miR-653-3p]
- 5+ nucleoli phenotype percent effect [1]: -0.303%
- one-nucleolus phenotype percent effect [2]: -7.51%
- percent viability [3]: 57.9%

Sequence: CUGACCUAUGAAUUGACAGCC [hsa-miR-192-5p]
- 5+ nucleoli phenotype percent effect [1]: -30%
- one-nucleolus phenotype percent effect [2]: 57.2%
- percent viability [3]: 28.2%

Sequence: CAGCAGGGGAGAGAGAGGAGUC [hsa-miR-6510-5p]
- 5+ nucleoli phenotype percent effect [1]: -10.7%
- one-nucleolus phenotype percent effect [2]: 20.8%
- percent viability [3]: 27.9%

Sequence: UGGAGAGAGAAAAGAGACAGAAG [hsa-miR-4644]
- 5+ nucleoli phenotype percent effect [1]: 39.4%
- one-nucleolus phenotype percent effect [2]: -24.6%
- percent viability [3]: 74.5%

Sequence: ACCAGGCAAGAAAUAUUGU [hsa-miR-4645-5p]
- 5+ nucleoli phenotype percent effect [1]: 5.96%
- one-nucleolus phenotype percent effect [2]: -4.87%
- percent viability [3]: 87.5%

Sequence: AAUGUAGAGAUUGAUCAAAAU [hsa-miR-3668]
- 5+ nucleoli phenotype percent effect [1]: 0.392%
- one-nucleolus phenotype percent effect [2]: 2.57%
- percent viability [3]: 86.3%

Sequence: ACCGUCUCUUCUGUUCCCCAG [hsa-miR-6827-3p]
- 5+ nucleoli phenotype percent effect [1]: -12.7%
- one-nucleolus phenotype percent effect [2]: 16.9%
- percent viability [3]: 64.6%

Sequence: CAGAGUGACAAGCUGGUUAAAG [hsa-miR-5586-3p]
- 5+ nucleoli phenotype percent effect [1]: 27.8%
- one-nucleolus phenotype percent effect [2]: -14.6%
- percent viability [3]: 98.4%

Sequence: UGAAGCCAGCUCUGGUCUGGGC [hsa-miR-4786-3p]
- 5+ nucleoli phenotype percent effect [1]: -24%
- one-nucleolus phenotype percent effect [2]: 25%
- percent viability [3]: 29%

Sequence: UGGGGGAGGAAGGACAGGCCAU [hsa-miR-7111-5p]
- 5+ nucleoli phenotype percent effect [1]: -6.11%
- one-nucleolus phenotype percent effect [2]: 36.7%
- percent viability [3]: 15.3%

Sequence: CAAUGUUUCCACAGUGCAUCAC [hsa-miR-33a-3p]
- 5+ nucleoli phenotype percent effect [1]: 2.57%
- one-nucleolus phenotype percent effect [2]: -10.4%
- percent viability [3]: 51.1%

Sequence: CCCCGGUGUUGGGGCGCGUCUGC [hsa-miR-4783-3p]
- 5+ nucleoli phenotype percent effect [1]: 13.9%
- one-nucleolus phenotype percent effect [2]: -13%
- percent viability [3]: 49.5%

Sequence: UCCUGUACUGAGCUGCCCCGAG [hsa-miR-486-5p]
- 5+ nucleoli phenotype percent effect [1]: 1.79%
- one-nucleolus phenotype percent effect [2]: 4.53%
- percent viability [3]: 41.3%

Sequence: AAUAAAGUUCAUGUAUGGCAA [hsa-miR-5590-3p]
- 5+ nucleoli phenotype percent effect [1]: -19%
- one-nucleolus phenotype percent effect [2]: -1.04%
- percent viability [3]: 61.8%

Sequence: UGGAAUGUAAGGAAGUGUGUGG [hsa-miR-206]
- 5+ nucleoli phenotype percent effect [1]: -23.7%
- one-nucleolus phenotype percent effect [2]: 48.4%
- percent viability [3]: 48.8%

Sequence: CAAGGAGACGGGAACAUGGAGC [hsa-miR-4428]
- 5+ nucleoli phenotype percent effect [1]: 32.8%
- one-nucleolus phenotype percent effect [2]: -16.1%
- percent viability [3]: 69.6%

Sequence: AGGAGAGUGGAUUCCAGGUGGU [hsa-miR-5192]
- 5+ nucleoli phenotype percent effect [1]: 20.1%
- one-nucleolus phenotype percent effect [2]: 10.4%
- percent viability [3]: 24.2%
